Consider one molecule from publication PMC9750192 (The Journal of Cell Biology, 2022).

The experiment concerns the target VASH2 (Cys158Ala), the VASH2 chain of the cryo-EM sample (human, UniProt Q86V25 1-355, Cys158 to alanine). The experiment can be described thus: cryo-EM structure.

Sequence of VASH2 (Cys158Ala), the VASH2 chain of the cryo-EM sample (Q86V25 whole entry C158A): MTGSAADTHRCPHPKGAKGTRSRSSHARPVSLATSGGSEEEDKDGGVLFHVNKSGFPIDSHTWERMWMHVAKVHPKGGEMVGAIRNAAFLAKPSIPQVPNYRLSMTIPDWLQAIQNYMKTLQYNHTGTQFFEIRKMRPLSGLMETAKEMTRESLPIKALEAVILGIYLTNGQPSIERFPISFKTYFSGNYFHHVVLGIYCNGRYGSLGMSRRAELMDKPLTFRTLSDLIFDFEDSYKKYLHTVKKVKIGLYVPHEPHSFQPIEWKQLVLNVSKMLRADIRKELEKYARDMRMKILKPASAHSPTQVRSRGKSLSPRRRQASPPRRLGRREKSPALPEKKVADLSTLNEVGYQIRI

B1: SVBP with a 6His tag, the SVBP chain of the cryo-EM sample (natural protein, human, UniProt Q8N300 1-66, looked up)
chain: MDPPARKEKTKVKESVSRVEKAKQKSAQQELKQRQRAEIYALNRVMTELEQQQFDEFCKQMQPPGE
Consider B1, for which the binding result is “binds”.
